Literature values, collected in US11795217B2, “Interleukin-1 inhibition for combination treatment of pancreatic cancer cachexia” (Cedars-Sinai Medical Center, priority 2018, dated 2023).

Tests used:
[1] = test system: patients with advanced cancer and cancer-associated symptoms; details: in vivo, 7.5 mg/kg
[2] = test system: patients with metastatic colorectal cancer
[3] = test system: patients with refractory cancers

Substance: bermekimab
- drug-related toxicities [1]: no definite drug-related toxicities
- response to treatment (primary outcome) ([2]; 309 patients, randomized 2:1, placebo 19%, p=0.0045): 33%
- relative reduction in the number of SAEs ([2]; human, in vivo): 26%
- patients with a positive DXA outcome as defined for the responder endpoint ([3]; 61 patients): 62 % of evaluable patients
- minimum effective dose ([3]; every 2 weeks, dose escalation study): 3.75 mg/kg
- dose limiting toxicity ([3]; human, in vivo): no dose limiting toxicity
- grade ¾ toxicities: fatigue ([3]; human, in vivo): 13%
- grade ¾ toxicities: nausea ([3]; human, in vivo): 13%
- grade ¾ toxicities: proteinuria ([3]; human, in vivo): 21%
- average LBM (lean body mass) change ([3]; patients with positive DXA outcome): 2.1 ± 2.8 kg
